Assay results from paper PMC7006816, “Human β-Defensin 2 Mediated Immune Modulation as Treatment for Experimental Colitis” (Frontiers in Immunology, 2020).
Where no end group is shown, it is not given here.

How the values were obtained:
[1] = tested on: BALB/cByJ mice with TNBS colitis; test: TNBS colitis model; type: in vivo, mouse; conditions: hBD2 0.1 mg/kg s.c. once a day
Protocol: The TNBS colitis study was performed by Farma-Cros Ibérica according to directive 86/609 EEC and approved by Novozymes science ethics committee. Male BALB/cByJ mice were used (Janvier) and each group consisted of 15 animals. Animal allocation to all experimental groups was done in a randomized manner. Colitis was induced on day 0 by intracolonic (distal) administration of trinitrobenzene sulfonic acid (TNBS), 1 mg/mouse in 50% ethanol under mild anesthesia (ketamine/xylazine). Treatment of the animals started on day 0 after induction of colitis. All compounds were applied s.c. Mice received PBS (TNBS control), Prednisolone (10 mg/kg), or hBD2 0.1 mg/kg), respectively. In the TNBS control group as well as in the Prednisolone group, 2 animals had to be sacrificed before the end of the experiment. All other animals were sacrificed on day 10. Daily clinical assessment was carried out to calculate a validated clinical DAI ranging from 0 to 4 according to the following parameters: body weight loss, presence or absence of rectal bleeding, stool consistency.
Sections of the colon were taken from each animal and preserved in neutral buffered formaline for subsequent histological analysis. Sections were stained using haematoxylin and eosin for further scoring.

murine BM-DC's = test: Cytokine production by murine BM-DC's; type: cell-based, mouse; conditions: n = 3
Protocol: BM-DC's were generated using granulocyte-macrophage colony-stimulating factor (GM-CSF) and RPMI-1640 medium (Merck) supplemented with 10% fetal calf serum (FBS; Life Technologies), 2 mM glutamine (Thermo Fisher), 100 U/ml penicillin/streptomycin (Gibco), 50 μM 2-mercaptoethanol (Roth), 1 mM sodium pyruvate (Biochrome), and 1x non-essential amino acids (Biochrome) as previously described ([28]). Shortly, 2 × 10^6 bone marrow cells flushed from the tibias and femurs of C57BL/6 mice were seeded in dishes containing 200 U/ml GM-CSF. After 3 days extra medium containing GM-CSF was added to the cells and on day 6 half of the medium was replaced by fresh […] containing GM-CSF. After 7 or 8 days slightly attached cells were harvested. Female C57BL/6JolaHsd mice were purchased from Janvier (St. Berthevin Cedex, France). Animal experiments were performed in strict accordance with the German regulations of the Society for Laboratory Animal Science (GV-SOLAS) and the European Health Law of the Federation of Laboratory Animal Science Associations (FELASA). The protocol was approved by the Regierungspräsidium Tübingen (Anzeige 09.01.2014).
2 × 10^5 murine BM-DC's or human Mo-DC's were seeded in 96-well round bottom plates. First they were pretreated with 100 ng/ml pertussis toxin (Sigma-Aldrich) or 5 μM of the CCR2 inhibitor RS 504393 (Tocris) and subsequently stimulated with 100 ng/ml LPS or 0.2 […] and 10 μg/ml or 100 μg/ml hBD2. 24 h later supernatants were collected and TNF-α [Biolegend (BM-DC's); R&D (Mo-DC's)] was analyzed according to the manufacturer's instructions. IL-10, IL-12, and IL-1β (LEGENDplex Biolegend) was as well-analyzed according to the manufacturer's instructions.

NMRI mice = test: In vivo toxicity test, single s.c. dose; parameters: species or system mouse; conditions: for Clinical signs at the end of the day of dosing / Clinical signs on the day of dosing: Clinical signs / Clinical signs on the day of dosing: No clinical signs / Clinical signs on the day of dosing: Pruritus / Necropsy: Macroscopic findings: female NMRI mice; for Clinical signs at the end of the day of dosing / Clinical signs on the day of dosing: Clinical signs / Clinical signs on the day of dosing: No clinical signs / Clinical signs on the day of dosing: Pruritus: animals/group; for Necropsy: Macroscopic findings: necropsy day 4, animals/group
Protocol: In vivo toxicity of hBD2 was assessed in 6–8 weeks old female NMRI mice (Taconic Europe). All animal studies were performed according to Danish legislations for laboratory animals and approved by Novozymes science ethics committee. hBD2 was given subcutaneously (s.c.) in the intrascapular region using a 25G needle and a 1 ml syringe. […] Clinical signs were recorded on day 0 and monitored until experimental endpoints. Body weights were recorded as a minimum on day 0, day 2, and day 4 prior to euthanasia. Necropsy was performed after euthanasia and kidneys, spleens and livers were weighed.

human Mo-DC's = test: Cytokine production by human Mo-DC's; type: cell-based; conditions: hBD2 100 μg/ml or 10 μg/ml, 24 h, ELISA, n = 3
Protocol: Peripheral blood was drawn from healthy donors and diluted one to one in PBS. The mixture was stacked in a falcon tube on Biocoll separation solution (Biochrome) with a ratio of three parts blood PBS mixture to two parts Biocoll. For a density gradient centrifugation the falcon tubes were centrifuged at 2,000 rpm for 30 min at RT. The PBMC's were removed and washed twice with PBS. 1.5 × 10^6 cells were seeded per well in a tissue culture-treated 6-well plate in RPMI-1640 medium (Merck) supplemented with 10% fetal calf serum (FCS; Sigma-Aldrich), 2 mM L-glutamine (Biochrome), 100 U/ml penicillin/streptomycin (Gibco), 50 μM 2-mercaptoethanol (Fluka), 1 mM sodium pyruvate (Biochrome), and 1x non-essential amino acids (Biochrome) and incubated for 1 h at 37°C and 5% CO2 for monocyte adherence. Then the cells were washed with media and PBS to remove the non-adherent cells and were cultivated for 6 days with media additional supplemented with 50 ng IL-4 and 100 ng GM-CSF (Miltenyi). […]
2 × 10^5 murine BM-DC's or human Mo-DC's were seeded in 96-well round bottom plates. […] 24 h later supernatants were collected and TNF-α [Biolegend (BM-DC's); R&D (Mo-DC's)] was analyzed according to the manufacturer's instructions. IL-10, IL-12, and IL-1β (LEGENDplex Biolegend) was as well-analyzed according to the manufacturer's instructions.

[2] = LPS, hBD2 100 μg/ml, 24 h, LEGENDplex

For “human β-defensin 2 (GIGDPVTCLKSGAICHPVFCPRRYKQIGTCGLPGTKCCKKP; not fully specified; ends and bridges not checked) [hBD2, Recombinant human β-defensin 2 expressed in E. coli as his-tagged thioredoxin fusion, cleaved and purified, natural tertiary structure]”, the “Microscopic analysis of the colon (mucosa)” value ([1]; TNBS) was “nearly normal mucosa”, the Weight change ([1]; TNBS 1 mg/mouse, n = 15) was “trended toward increased weight gain from day 1–7” and the Colon weight ([1]; TNBS, n = 15) was “significantly reduced colon weight”. For the same substance, the “Macroscopic score of colon” value ([1]; TNBS, n = 15) was “significantly improved”, the “Microscopic score of colon” value ([1]; TNBS, n = 15) was “significantly improved” and the “TNF-α production in LPS-challenged murine BM-DCs” value (murine BM-DC's; LPS, hBD2 100 μg/ml or 10 μg/ml, 24 h, ELISA) was “dose-dependently curbed TNF-α production”. The IL-10 secretion (murine BM-DC's; [2]) was “substantial induction”, the “LPS-induced IL-1β secretion” value (murine BM-DC's; [2]) was “alleviated” and the “LPS-induced IL-12p70 secretion” value (murine BM-DC's; [2]) was “alleviated”. The “LPS-induced TNF-α secretion” value (murine BM-DC's; [2]) was “alleviated”, the “Cytokine production after TLR-independent activation” value (murine BM-DC's; cytokine cocktail TNF-α, IL-6, IL-1β (0.2 mg/ml each), hBD2 100 μg/ml) was “failed to modulate TLR-independent activation of BM-DCs” and the “Clinical signs after systemic challenge” value (NMRI mice; 0.5 mg/kg s.c.) was “did not develop any clinical signs”. For the same substance, the “Clinical signs at the end of the day of dosing” value (shortened to “Clinical signs at the end”) (NMRI mice; 0.5 mg/kg s.c.) was 0/3, the “Clinical signs on the day of dosing: Clinical signs” value (NMRI mice; 0.5 mg/kg s.c.) was 0/3 and the “Clinical signs on the day of dosing: No clinical signs” value (“Clinical signs … No clinical signs” for short) (NMRI mice; 0.5 mg/kg s.c.) was 3/3. For the same substance, the “Clinical signs on the day of dosing: Pruritus” value (shortened to “Clinical signs … Pruritus”) (NMRI mice; 0.5 mg/kg s.c.) was 0/3, the “Necropsy: Macroscopic findings” value (NMRI mice; 0.5 mg/kg s.c.) was 0/3 and the “Clinical signs at the end” value (NMRI mice; 10 mg/kg s.c.) was 0/3. The “Clinical signs on the day of dosing: Clinical signs” value (NMRI mice; 10 mg/kg s.c.) was 3/3, the “Clinical signs … No clinical signs” value (NMRI mice; 10 mg/kg s.c.) was 0/3 and the “Clinical signs … Pruritus” value (NMRI mice; 10 mg/kg s.c.) was 3/3. For the same substance, the “Necropsy: Macroscopic findings” value (NMRI mice; 10 mg/kg s.c.) was 0/3, the “Clinical signs at 60 min post dosing” value (NMRI mice; 40 mg/kg s.c.) was “still affected at 60 min post dosing” and the “Clinical signs at the end” value (NMRI mice; 40 mg/kg s.c.) was 0/3. The “Clinical signs … No clinical signs” value (NMRI mice; 40 mg/kg s.c.) was 0/3, the “Clinical signs … Pruritus” value (NMRI mice; 40 mg/kg s.c.) was 3/3 and the “Necropsy: Macroscopic findings” value (NMRI mice; 40 mg/kg s.c.) was 0/3. For the same substance, the Body weight gain (NMRI mice; 0.5, 10, 40 mg/kg s.c., day 0-4) was “did not show any weight loss”, the “Adverse effects at necropsy” value (NMRI mice; 0.5, 10, 40 mg/kg s.c., necropsy day 4) was “no adverse effects were observed at necropsy” and the “Organ weight (liver, spleen, kidneys)” value (NMRI mice; 0.5, 10, 40 mg/kg s.c., necropsy day 4, hBD2 mice n = 3, control n = 2) was “nor did the organ weight differ significantly between the groups”. For the same substance, the “Clinical signs shortly after challenge” value (NMRI mice; 10 or 40 mg/kg s.c., 10–15 min after challenge, transient) was “mild clinical signs” and the “TNF-α production in LPS-challenged human mo-DCs” value (human Mo-DC's) was “dose-dependently curbed TNF-α production”.
